PMC10023157, “Peptides that Mimic RS repeats modulate phase separation of SRSF1, revealing a reliance on combined stacking and electrostatic interactions”

Legend:
Test in all cases: not stated; Fluorescence polarization: 100 mM ER4 peptide, 400 mM Arg/Glu, pH 6.5; temperature not stated; three technical replicates
Settings in all cases: protein: recombinant; tags: SUMO (pSMT3) His tag removed by Ulp1
SRSF1 N220C = SRSF1 N220C (human, UniProt Q07955 1-248, C16S;C148S;N220C)
SRSF1 NoC = SRSF1 NoC (human, UniProt Q07955 1-248, C16S;C148S)
SRSF1 NoC, sequence (Q07955 whole entry C16S/C148S): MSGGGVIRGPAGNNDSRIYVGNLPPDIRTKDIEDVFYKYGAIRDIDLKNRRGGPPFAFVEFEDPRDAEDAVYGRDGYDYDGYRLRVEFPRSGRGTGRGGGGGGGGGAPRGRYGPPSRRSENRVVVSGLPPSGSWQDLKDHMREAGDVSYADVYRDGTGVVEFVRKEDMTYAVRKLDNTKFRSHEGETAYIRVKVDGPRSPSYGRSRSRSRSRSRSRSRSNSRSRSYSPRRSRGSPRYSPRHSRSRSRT

SRSF1 T248C = SRSF1 T248C (human, UniProt Q07955 1-248, C16S;C148S;T248C)
SRSF1 T248C, sequence (Q07955 whole entry C16S/C148S/T248C): as the sequence (Q07955 whole entry C16S/C148S) above, with T248C counted along it

Measured: binding result

SRSF1 N220C, sequence (Q07955 whole entry C16S/C148S/N220C): as the sequence (Q07955 whole entry C16S/C148S) above, with N220C counted along it

UCAGAGGA (ssRNA) [UCAGAGGA (SRSF1 cognate RNA)]
binds: all assays above
